Laboratory results published in article PMC8166090, “Improvements of the productivity and saccharification efficiency of the cellulolytic β-glucosidase D2-BGL in Pichia pastoris via directed evolution” (Biotechnology for Biofuels, 2021).

T1: D2-BGL (WT D2; Pp D2-BGL) (Chaetomella raphigera, UniProt A0A068FT77)
T1 construct: 722 residues, 76 kDa theoretical; alpha-mating factor secretion signal upstream (pGAPZalphaC-D2); expressed in Pichia pastoris SMD 1168; glycosylated
T1 sequence (A0A068FT77 1-722): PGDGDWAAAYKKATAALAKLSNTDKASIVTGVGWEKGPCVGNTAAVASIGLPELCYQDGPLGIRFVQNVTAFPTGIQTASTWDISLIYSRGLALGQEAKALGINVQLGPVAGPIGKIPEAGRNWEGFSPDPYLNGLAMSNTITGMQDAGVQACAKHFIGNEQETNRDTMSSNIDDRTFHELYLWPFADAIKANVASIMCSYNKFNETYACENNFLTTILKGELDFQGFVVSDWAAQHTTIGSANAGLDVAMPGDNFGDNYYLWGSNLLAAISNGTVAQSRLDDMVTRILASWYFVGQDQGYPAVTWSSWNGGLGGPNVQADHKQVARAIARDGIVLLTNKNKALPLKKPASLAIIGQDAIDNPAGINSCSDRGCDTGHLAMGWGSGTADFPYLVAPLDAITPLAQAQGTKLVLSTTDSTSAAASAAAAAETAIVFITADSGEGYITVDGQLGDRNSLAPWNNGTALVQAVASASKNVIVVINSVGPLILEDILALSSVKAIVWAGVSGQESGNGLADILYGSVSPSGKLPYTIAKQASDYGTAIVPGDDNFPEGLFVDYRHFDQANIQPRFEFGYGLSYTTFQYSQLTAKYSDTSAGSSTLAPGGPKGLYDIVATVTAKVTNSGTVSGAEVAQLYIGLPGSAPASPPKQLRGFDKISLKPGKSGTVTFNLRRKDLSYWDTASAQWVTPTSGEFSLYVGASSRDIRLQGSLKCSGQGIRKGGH


Legend:
[1] = target: T2, D2-BGL (WT D2; Pp D2-BGL) (Chaetomella raphigera, UniProt A0A068FT77, D224G/F256M/Y260D); experiment: p-nitrophenol release at […] nm, […] pNPG, substrate inhibition fit; format: biochemical; conditions: 50 mM NaOAc pH 5, 55 °C
T2 construct: 722 residues, 76 kDa theoretical; alpha-mating factor secretion signal upstream (pGAPZalphaC-D2); expressed in Pichia pastoris SMD 1168; glycosylated

[2] = target: T2, D2-BGL (WT D2; Pp D2-BGL); experiment: inhibition of pNPG hydrolysis with […] glucose; format: biochemical; conditions: pNPG as substrate; 50 mM NaOAc pH 5, 55 °C; product inhibition; read-out: Mut M
[3] = target: T1, D2-BGL (WT D2; Pp D2-BGL); experiment: inhibition of pNPG hydrolysis with […] glucose; format: biochemical; conditions: pNPG as substrate; 50 mM NaOAc pH 5, 55 °C; product inhibition
[4] = substrate: O=[N+]([O-])c1ccc(O[C@@H]2O[C@H](CO)[C@@H](O)[C@H](O)[C@H]2O)cc1; experiment: purified protein; conditions: 50 mM NaOAc pH 5, 55 °C

| kinetic constant from substrate inhibition fit [1] [mM] | Ki [2] [µM] | Ki [3] [µM] | Molecule | Km [4] [µM] | Vmax [4] [µM/min] |
| --- | --- | --- | --- | --- | --- |
| 3.21 ± 0.56 |  |  | O=[N+]([O-])c1ccc(O[C@@H]2O[C@H](CO)[C@@H](O)[C@H](O)[C@H]2O)cc1 [pNPG, p-nitrophenyl β-D-glucopyranoside] |  |  |
|  | 1590 ± 70 | 3230 ± 1080 | OC[C@H]1OC(O)[C@H](O)[C@@H](O)[C@@H]1O (stereo partly shown) [glucose] |  |  |
|  |  |  | D2-BGL (WT D2; Pp D2-BGL) (Chaetomella raphigera) (protein) PGDGDWAAAYKKATAALAKLSNTDKASIVTGVGWEKGPCVGNTAAVASIGLPELCYQDGPLGIRFVQNVTAFPTGIQTASTWDISLIYSRGLALGQEAKALGINVQLGPVAGPIGKIPEAGRNWEGFSPDPYLNGLAMSNTITGMQDAGVQACAKHFIGNEQETNRDTMSSNIDDRTFHELYLWPFADAIKANVASIMCSYNKFNETYACENNFLTTILKGELDFQGFVVSDWAAQHTTIGSANAGLDVAMPGDNFGDNYYLWGSNLLAAISNGTVAQSRLDDMVTRILASWYFVGQDQGYPAVTWSSWNGGLGGPNVQADHKQVARAIARDGIVLLTNKNKALPLKKPASLAIIGQDAIDNPAGINSCSDRGCDTGHLAMGWGSGTADFPYLVAPLDAITPLAQAQGTKLVLSTTDSTSAAASAAAAAETAIVFITADSGEGYITVDGQLGDRNSLAPWNNGTALVQAVASASKNVIVVINSVGPLILEDILALSSVKAIVWAGVSGQESGNGLADILYGSVSPSGKLPYTIAKQASDYGTAIVPGDDNFPEGLFVDYRHFDQANIQPRFEFGYGLSYTTFQYSQLTAKYSDTSAGSSTLAPGGPKGLYDIVATVTAKVTNSGTVSGAEVAQLYIGLPGSAPASPPKQLRGFDKISLKPGKSGTVTFNLRRKDLSYWDTASAQWVTPTSGEFSLYVGASSRDIRLQGSLKCSGQGIRKGGH | 310 ± 140 | 575 |
|  |  |  | D2-BGL (WT D2; Pp D2-BGL) (Chaetomella raphigera; D224G/F256M/Y260D) (protein) PGDGDWAAAYKKATAALAKLSNTDKASIVTGVGWEKGPCVGNTAAVASIGLPELCYQDGPLGIRFVQNVTAFPTGIQTASTWDISLIYSRGLALGQEAKALGINVQLGPVAGPIGKIPEAGRNWEGFSPDPYLNGLAMSNTITGMQDAGVQACAKHFIGNEQETNRDTMSSNIDDRTFHELYLWPFADAIKANVASIMCSYNKFNETYACENNFLTTILKGELGFQGFVVSDWAAQHTTIGSANAGLDVAMPGDNMGDNDYLWGSNLLAAISNGTVAQSRLDDMVTRILASWYFVGQDQGYPAVTWSSWNGGLGGPNVQADHKQVARAIARDGIVLLTNKNKALPLKKPASLAIIGQDAIDNPAGINSCSDRGCDTGHLAMGWGSGTADFPYLVAPLDAITPLAQAQGTKLVLSTTDSTSAAASAAAAAETAIVFITADSGEGYITVDGQLGDRNSLAPWNNGTALVQAVASASKNVIVVINSVGPLILEDILALSSVKAIVWAGVSGQESGNGLADILYGSVSPSGKLPYTIAKQASDYGTAIVPGDDNFPEGLFVDYRHFDQANIQPRFEFGYGLSYTTFQYSQLTAKYSDTSAGSSTLAPGGPKGLYDIVATVTAKVTNSGTVSGAEVAQLYIGLPGSAPASPPKQLRGFDKISLKPGKSGTVTFNLRRKDLSYWDTASAQWVTPTSGEFSLYVGASSRDIRLQGSLKCSGQGIRKGGH | 180 ± 50 | 374 |
